The target of the assay is T1, human His-Bub3 full-length recombinant protein (human, UniProt O43684 1-328).
T1 construct: Bub3, human, full-length recombinant protein; also called Recombinant His-Bub3; source: bought: Abcam (ab139802)
Description: pull-down; recombinant His-Bub3 incubated with GST, GST-NKAP and its deletion mutants; 50 mM Tris–HCl pH 7.5, 150 mM NaCl, 1 mM EDTA, 0.3 mM dithiothreitol, 0.1% NP-40; overnight at 4 °C; bound protein by immunoblot. Particulars: both partners purified. In general terms: Immunoblotting shows a protein as a band on a membrane.

T1 sequence (O43684 whole entry): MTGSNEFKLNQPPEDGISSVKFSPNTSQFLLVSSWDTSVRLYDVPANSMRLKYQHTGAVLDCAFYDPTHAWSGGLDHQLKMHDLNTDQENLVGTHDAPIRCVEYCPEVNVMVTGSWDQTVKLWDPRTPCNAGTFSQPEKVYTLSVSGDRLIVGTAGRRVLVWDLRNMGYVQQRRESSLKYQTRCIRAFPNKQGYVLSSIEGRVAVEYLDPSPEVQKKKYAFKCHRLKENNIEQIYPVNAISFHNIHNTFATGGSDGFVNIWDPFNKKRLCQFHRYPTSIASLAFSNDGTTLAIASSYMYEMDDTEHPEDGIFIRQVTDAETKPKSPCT

B1: GST-NKAP deletion mutant aa 1–138 (domain or fragment, human, UniProt Q8N5F7 1-138, looked up)
chain: MAPVSGSRSPDREASGSGGRRRSSSKSPKPSKSARSPRGRRSRSHSCSRSGDRNGLTHQLGGLSQGSRNQSYRSRSRSRSRERPSAPRGIPFASASSSVYYGSYSRPYGSDKPWPSLLDKEREESLRQKRLSERERIG
notes: The text names the region; source: E. coli DH5α, purified (glutathione Sepharose 4B)
Consider B1, for which the binding result is “binds”.

B2: GST-NKAP deletion mutant aa 139–276 (domain or fragment, human, UniProt Q8N5F7 139-276, looked up)
chain: ELGAPEVWGLSPKNPEPDSDEHTPVEDEEPKKSTTSASTSEEEKKKKSSRSKERSKKRRKKKSSKRKHKKYSEDSDSDSDSETDSSDEDNKRRAKKAKKKEKKKKHRSKKYKKKRSKKSRKESSDSSSKESQEEFLEN
notes: as for B1
B2: the binding result was “binds”.

Source of the values: article PMC5064014, “SUMOylated NKAP is essential for chromosome alignment by anchoring CENP-E to kinetochores” (Nature Communications, 2016).
